# Test: soluble on expression in E. coli; label from the status in PepcDB or PDB records
row,Sequence,soluble on expression in E. coli
1,MTVSNNGMAMPSVPPKIDCSEAIQDSPKFRATVAQHAMYFNRLENRLNEMLRHITAMIDFSKNYTNTFYKLTVSVNQLCDESFSGNPLASTTFQGLSEAYAHTVNLFRTYFDHSNVVTFTKLSNFIKIELTKVAESRAHFENMSQSMDDALVKNASISRQKPADATEGRNALTAVGTCFAHTTLDYVANINIAHAHKDHMILDALWTLVRESSAFFSKGHATFDEWTAADNGAIADTIQTFAAKSKLIERKMQDVHSLVPKEMFQHPSGMPIEPDVMMEGYLYKRSSNAFKTWNRRWFQIKDKQLLYSHRSTDLEPATIMEENLRICLVRPAPSNIDRIGCFELVTPTRIHLLQADSESLCQDWMRALQRTILALHEGDSVDVASTSPRNKTTSMSSGVTLTSANAISPLSNAMDVTKGRSVSDPASTYTSANTSSISTAAGFSSSTTAFEQVRRVPGNEVCADCGSPAPKWVSINLGVVLCIECSGAHRSLGVQTSKVRSLCMDSIDNELRDVLLALGNRQVNEIFLAHLPPADSIVPPQINEKSARPAREAWIKAKYVERRFAVAEDTRARSSATNRQEHLKHKTSIGGNSSSNGVNRSSSYADVQDAESGGLLDADPWSADLSVPVPTASKRLSACGSDTNLDAIGSSSIDTKTVEWDSVKEACECGDLLALMTAYAQGFDLNALHNGTTALHIATRNGQTAAVEFLLLNGAKINMLDEKLNTPLHLAAKEGHTLPVCQLLKRGADSNLANVDSKTPLDIAMECTHADIVTLFRVTIMRNDFNADFNNPMDETVEAVISDIARRAATEKEQKKTESLKSTSDI,not soluble
2,MTVYLRKAEPSDLPDILAIIEDGRRTLQKSGIPQWQNGDGPNQEILAKDIDQQTCYILMVEDALAGVGVLCSEIDPAYEAIFNGSWQPHSQTTYTAIHCVALKSSFQGQGLALVLLRSLVTAARLQGATDIRIDTHPQNLAMQHLIKKAGFVYQGDVILDVNDGERYAYQMILK,not soluble
3,MTWETVIGLEIHVQLNTKSKIFSGASTAFGAEPNAHASVVECALPGVLPVMNREVVEKAIKLGLALDAKINQKNVFDRKNYFYPDLPKGYQISQLDLPIVEHGKLEIVVGDDVKTINVTRAHMEEDAGKSVHEGLNGATGIDLNRAGTPLLEVVSEPEMRSAAEAVAYAKALHSLVTWLDICDGNMAEGSFRVDANVSVRPKGQEEFGTRREIKNLNSFRFLEQAINYEAEAQIEILEDGGKVQQATMLFDPEKGETRVMRLKEDAHDYRYFPDPDLLPVIISDAQMQKAKAEMPELPKEMAARFVADYGVSEYDARLLTASRAQAAYFEEAAKESGQGKLTANWMNGELAAALNKEGMELADSPITAPRLAALVGKIADGTLSSKLAKKAFEAMWAEPEATIAEIIEKHGLQQMTDTGEIEAMVDEVLANNAKAVEQFKSGNEKALNAIVGQVMKASKGKANPAQVQELIKAKLA,not soluble
4,MTWKNFGFEIFGEKYGQEELEKRIKDEHTPPPDSPVFGGLKLKLKKEKFKTLFTLGTTLKGFRRATHTVGTGGIGEITIVNDPKFPEHEFFTAGRTFPARLRHANLKYPDDAGADARSFSIKFADSDSDGPLDIVMNTGEANIFWNSPSLEDFVPVEEGDAAEEYVYKNPYYYYNLVEALRRAPDTFAHLYYYSQVTMPFKAKDGKVRYCRYRALPGDVDIKEEDESGRLTEEEQRKIWIFSRHENEKRPDDYLRKEYVERLQKGPVNYRLQIQIHEASPDDTATIFHAGILWDKETHPWFDLAKVSIKTPLSPDVLEKTAFNIANQPASLGLLEAKSPEDYNSIGELRVAVYTWVQHLRKLKIGSLVPAGQNAIYNVEVETGDREHAGTDATITIRITGAKGRTDYLKLDKWFHNDFEAGSKEQYTVQGFDVGDIQLIELHSDGGGYWSGDPDWFVNRVIIISSTQDRVYSFPCFRWVIKDMVLFPGEATLPFNEVPAIVSEQRQKELEQRKLTYQWDYVSDDMPGNIKAKTHDDLPRDVQFTDEKSRSYQESRKAALVNLGIGSLFTMFENWDSYDDYHILYRNWILGGTPNMADRWHEDRWFGYQFLNGANPVILTRCDALPSNFPVTNEHVNASLDRGKNLDEEIKDGHIYIVDFKVLVGAKSYGGPVLEDIGYKVPDHLKHDEADIRYCAAPLALFYVNKLGHLMPIAIQINQEPGPENPIWTPHEENEHDWMMAKFWLGVAESNFHQLNTHLLRTHLTTESFALSTWRNLASAHPIFKLLQPHIYGVLAIDTIGRKELIGSGGIVDQSLSLGGGGHVTFMEKCFKEVNLQDYHLPNALKKRGVDDPSKLPGFYYRDDGLALWEAIETFIGEIIAIFYKNDDDVKRDNEIQSWIYDVHKNGWRVNPGHQDHGVPASFESREQLKEVLTSLVFTFSCQHAAVNFSQKDHYGFTPNAPAILRHPPPKKKGEATLQSILSTLPSKSQAAKAIATVYILTKFSEDERYLGNYSATAWEDKDALDAINRFQDKLEDISKKIKQRNENLEVPYIYLLPERIPNGTAI,soluble
5,MTWPARRVLYAIWQDPWMTVSRATYISRMLALVNWATWPDDADTSDTPAACVDGDCSRPNAPGERYPTFRWSDALVRELDAVLLSTEPYRFTEDHADALERQIGKPVLLVDGEMLSWYGSRAVAGARYLRSLAQGFLEHHHHHH,not soluble
6,MTYAESTRSAVVYSSIVPPPRTPVGPPMLKDGVRKGSASQPLQPKNGANSLDYWSKSEDEKSGITCYYSRHNIQFPPPQRKMKPVKPNPVGRSTINGFTPSTSSPQNGLRYPPFPQNTPESVMSPPVGIYRNIPAMPRAKLTKDEKNGGKMNRDGGGENPKNVVWGGTSRKDDDTASTPLNSFSANASIEKKRSTARRKPRWARCFQTLFCCVTPPREIEKIQSSQRTNSTNNNHQNGRPSTPTNTGPPIQLITQVHRDGTVTGLPTTGQACQQNGSGDGVTPYDKIANDSVGTINEKPLLPPLLPQDSNKKCLVIDLDETLVHSSFKPVKNPDFVIPVEIDGVEHQVYVLKRPYVDEFLAKVGEHFECILFTASLAKYADPVADLLDKKRVFRGRLFREACVFHKGNYVKDLSRLGRNLNQTLIIDNSPASYAFHPENAVPVTTWFDDPSDTELLDILPSLEHLNGFSSIYDLYRPEEGPQSELLNHCSC,not soluble
7,MTYCHQFLSNLSSLTRFRLHTGNVNGYTQLKVRRFETSAEELAACLDLQLSSNPIADDFKENSCLLLCDNDHIDNYERDEIKITMKVFLSAWDVQQIDQAVTSLKEQLKTKDIEVLILSFPELDLIDGESEEDENNRWFEKVKPLYTYMEKLVETSEIASIGVSDFSARQLKTIIDHFDVKPSINHVRLDGCCQVPPELQALANDNDVQLLVHNDPTPFPTNNIFKTFCEIDSGSQKAVCSPLFETTWLSRYSVWVRKRSIMTSKGYIVQFFRKHD,not soluble
8,MTYLEIEGTNHLSGNVTISGAKNAALPLIVSSILAKNEVKINNVPNVADIKTLISLLENLGAKVNFQNNSALLNTNTLNQTIAKYDIVRKMRASILTLGPLLARFGHCEVSLPGGCAIGQRPIDLHLLALEKMGANIQIKQGYVVASGNLKGNEILFDKITVTGSENIIMAAALAKGKTKLLNVAKEPEVVQLCEVLKDAGLEIKGIGTDELEIYGSDGELLEFKEFSVIPDRIEAGTYLCAGAITNSKITLDKVNATHLSAVLAKLHQMGFETLITEDSITLLPAKEIKPVEIMTSEYPGFPTDMQAQFMALALKANGTSIIDERLFENRFMHVSELLRMGADIKLNGHIATIVGGKELNAADVMATDLRASSALILAALAAKGTSKVHRIYHLDRGYENLEEKFKDLGAKITRLEE,not soluble
9,MTYSGLNLNQDKATKPQTVQIVRQGEATLYWFLLIHYRFRRERRETQSLLMTRNTLKFIPFWSYKHITYAIFLYSRLPENSGQEYLTQRKAEKATKNNLHLSRLVSPTLGVQTIQSFRLPLFVYKINF,not soluble
10,MVAADIGAGLADALTAPLDHKDKGLQSLTLDQSVRKNEKLKLAAQGAEKTYGNGDSLNTGKLKNDKVSRFDFIRQIEVDGQLITLESGEFQVYKQSHSALTAFQTEQIQDSEHSGKMVAKRQFRIGDIAGEHTSFDKLPEGGRATYRGTAFGSDDAGGKLTYTIDFAAKQGNGKIEHLKSPELNVDLAAADIKPDGKRHAVISGSVLYNQAEKGSYSLGIFGGKAQEVAGSAEVKTVNGIRHIGLAAKQHHHHHH,soluble
11,MVADMAGSSEKFKIVLKPVTAEAVPSGDAVKVTTGGVQIDVYPEREAGGPERGLTPLGLLAASLASCEVLMSRLVGRMLGYNGFDVRVAVTADVQVAEGLRSLSIRYVFKGVDIDTANLIVSKVKELCPVYNSLVRNGVSVEENVEVE,soluble
12,MVAESNSAVAPTANVATSPAHEHFVRVNGGHFELQGKPYVITGVNMWYAAYLGAPNEVGDRDRLAKELDNLKAIGVNNLRVLAVSEKSEINSAVKPAVTNGFGNYDETLLQGLDYLLVELAKRDMTVVLYFNNFWQWSGGMTQYMAWIEGEPVQDPNVTNEWEAFMAKSASFYRSEKAQQEYRKTLEKIITRVNSINGKAYVDDATIMSWQLANEPRPGNSQTTAEEKQIYIDWVHAAAAYIKTLDAHHLVSSGSEGEMGSVNDMQVFIDAHATPDIDYLTYHMWIRNWSWFDKTKPAETWPSAWEKAQNYMRAHIDVAKQLNKPLVLEEFGLDRDMGSYAMDSTTEYRDNYFRGVFELMLASLEQGEPSAGYNIWAWNGYGRTTRANYWWQEGDDFMGDPPQEEQGMYGVFDTDTSTIAIMKEFNARFQPKLEHHHHHH,soluble
13,MVAISDLRGLSLPEALGGIVEAIENVEVGEQVQFVLDSDADVEAITTHLSEYAECSAEKGDRFILLKVTKRAEFKADEEEEFRIDENTNVGRLIERYPEATEILASYGFTPLRNPVLRKTLAKTITLGRAKMLKKLSDEEFEEMLRKLRELRG,not soluble
14,MVAIVDVGITKFGKRKENIFDLVKEVTEKLLKYDIDYVIVSNSYSGEFNQTSGLSSLITTYLNLDYVPSLRVDNTSGSGGSAILVAKSLLESKEANTVLVVGVEKMSEKKTREVTKIISSLLPFEERIASLPSLASISAIEYMRKFNAPRESIAQVAVKNHYNGSLNPFAHIQKRVTLEEVLNSPVISEPLRLYEYTPISDGAAAVVMVRNEDALSYTSKPVYIKGIGSSNYTAYVSEKEDFVTLPAVVEASRKAFKKAKVERIDFAELHDMATILEIIQSEDIGLFKKGEGWKAVMEGLTSLDGEIPINPSGGLNSKGHPIGASGVAQAVEAFSQIRNEAGNRQVKNARVGLSLSMAGYGNSATVIIYGDEP,soluble
15,MVAQNPTSISSGGRKQPQKQDKVQKKQLKKIYVVKIKRIPFGFFEKELLGYFRQFGNVLRIRVARNRRTGNHKGWAYVGFDNKAVAEIAAESMNGYLMFEQRLGCTVMKPELIPKAMRHGPLLVMRPSYLGIAKKDTIARNNTTGKNDVINAKKRVQNLNKTLKKLQNMGINYDFSVSGTPRTPLKKVIDNEVQFISDVTPKSTTPKIVKAATPKAATPKAVTPKQATPKVSTPVTKKVVIKTPKTEKPEPKQFTPKTRAGKKAAAAATPQAKSTLSNTILKSVAASARPAAVEKKTLRSRGKKKSL,soluble
16,MVAVIIKGNEVAEKKRAQLKEEVVKLKEQGIVPGLAVILVGEDPASRSYVKGKEKGCEQVGIYSELIEFPETITEERLLAEIDRLNGDDRINGILVQLPLPKHIEEKAIIERISPEKDVDGFHPISVGRMMTGQDTFLPCTPHGIVELVKETNLDISGKHVVVIGRSNIVGKPVGQLFLNENATVTYCHSKTQNMKELTKLADILIVAVGRPKMVTADYIKEGAVVIDVGVNRLETGKLCGDVDFDNVLDVASYITPVPKGVGPMTITMLLHNTVESAKRAGVVCK,not soluble
17,MVDAGLVLAAGFSRRFRGLLGVHKVAAGVRGYPLLCYPVTSLALAGVDRVFVVASQFNLNVVELVLGHCPFRVSGVLISSLSTLGNGFSLVEGLREAGLRGSRCLAVSMADHVYPPSIARRLIEAGCNTLGVDSRPRYIEVGEATHVSLEPGAGVRLGKDVEGCCVDIGIHTIEAGIASIGCIDLPPRGEASVSQLITCAARKGYTFKLVDVDGGPWMEVDSPEDLERLLQGDGLEVLEAVRSEWGFLEHHHHHH,not soluble

# Reference: the DeepSol protein solubility set
